# In publication PMC8205012, “Novel CD123 polyaptamer hydrogel edited by Cas9/sgRNA for AML-targeted therapy”:
# B1: sgRNA (structured_RNA)
# RNA: GGUGGUGCAGAUGAACUUCAGUUUUAGAGCUAGAAAUAGCAAGUUAAAAUAAGGCUAGUCCGUUAUCAACUUGAAAAAGUGGCACCGAGUCGGUGCUUUU
# Biological target: Cas9 (UniProt Q99ZW2 1-1368)
# Assay: flow cytometry, Cas9 beads; Cell binding: 1e5 cells, 50 nM (flow) or 5 uM (confocal) FAM-DNA, 37 C, 30 min, PBS wash; bead assays: beads washed in PBS, binding buffer and temperature not stated
# Conditions: protein: commercial; label: FAM
# Chain of Cas9 (Q99ZW2 whole entry): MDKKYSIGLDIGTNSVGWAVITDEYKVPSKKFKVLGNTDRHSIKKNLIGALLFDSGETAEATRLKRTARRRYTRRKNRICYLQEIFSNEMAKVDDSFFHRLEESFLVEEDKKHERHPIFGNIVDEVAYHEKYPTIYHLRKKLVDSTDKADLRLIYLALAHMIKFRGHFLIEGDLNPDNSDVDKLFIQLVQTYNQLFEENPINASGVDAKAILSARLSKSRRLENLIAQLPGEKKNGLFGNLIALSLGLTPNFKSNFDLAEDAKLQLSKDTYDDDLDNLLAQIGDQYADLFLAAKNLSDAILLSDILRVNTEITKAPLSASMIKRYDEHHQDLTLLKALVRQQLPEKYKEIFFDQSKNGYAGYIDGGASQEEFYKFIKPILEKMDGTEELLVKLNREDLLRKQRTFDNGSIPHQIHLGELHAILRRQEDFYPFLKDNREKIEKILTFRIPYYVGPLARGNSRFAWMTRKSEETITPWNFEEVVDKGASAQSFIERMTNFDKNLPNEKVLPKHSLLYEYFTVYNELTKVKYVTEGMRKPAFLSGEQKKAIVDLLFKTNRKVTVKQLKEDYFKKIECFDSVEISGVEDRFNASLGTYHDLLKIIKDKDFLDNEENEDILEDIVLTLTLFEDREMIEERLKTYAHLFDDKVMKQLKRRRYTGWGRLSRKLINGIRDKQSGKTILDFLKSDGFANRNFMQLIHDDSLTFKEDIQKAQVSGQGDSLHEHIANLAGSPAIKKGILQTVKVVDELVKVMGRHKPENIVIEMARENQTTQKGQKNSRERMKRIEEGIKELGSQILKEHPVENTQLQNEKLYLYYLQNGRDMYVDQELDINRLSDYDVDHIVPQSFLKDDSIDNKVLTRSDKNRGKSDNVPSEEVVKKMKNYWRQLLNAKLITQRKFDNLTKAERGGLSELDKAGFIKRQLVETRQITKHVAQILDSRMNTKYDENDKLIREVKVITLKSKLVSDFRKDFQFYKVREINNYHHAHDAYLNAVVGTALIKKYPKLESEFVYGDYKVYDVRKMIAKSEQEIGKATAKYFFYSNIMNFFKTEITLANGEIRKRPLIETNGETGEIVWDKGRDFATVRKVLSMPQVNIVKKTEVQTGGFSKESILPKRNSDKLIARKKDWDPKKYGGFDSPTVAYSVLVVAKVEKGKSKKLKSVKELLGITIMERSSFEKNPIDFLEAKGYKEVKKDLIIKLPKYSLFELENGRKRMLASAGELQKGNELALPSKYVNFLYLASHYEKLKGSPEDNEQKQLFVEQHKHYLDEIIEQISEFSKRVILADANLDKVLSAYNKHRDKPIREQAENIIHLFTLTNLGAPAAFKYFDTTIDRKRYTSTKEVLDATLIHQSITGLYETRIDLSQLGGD
binder,measurement,value
B1,binding result,binds
